Positions of bridges follow the written chain, without caps; N, C: chain ends. Non-standard residues stand in square brackets, D forms with d. Phe(4-CF3) = N[C@@H](Cc1ccc(C(F)(F)F)cc1)C(=O)O; Bip = N[C@@H](Cc1ccc(-c2ccccc2)cc1)C(=O)O; R8 = C=CCCCCCC[C@@](C)(N)C(=O)O; hAdm = homo-adamantyl glycine; S5 = C=CCCC[C@](C)(N)C(=O)O
How the values were obtained:
Test in all cases: Ki table, method not stated
BCL-2 = BCL-2 (UniProt P10415 1-217, limits assumed)
MCL-1 = biological target: T1, MCL-1 (UniProt Q07820 172-327, limits assumed)
T1 construct: also called Myeloid cell leukemia 1

BCL-XL = BCL-XL (UniProt Q07817 1-209)
Sequence of BCL-XL (Q07817 1-209): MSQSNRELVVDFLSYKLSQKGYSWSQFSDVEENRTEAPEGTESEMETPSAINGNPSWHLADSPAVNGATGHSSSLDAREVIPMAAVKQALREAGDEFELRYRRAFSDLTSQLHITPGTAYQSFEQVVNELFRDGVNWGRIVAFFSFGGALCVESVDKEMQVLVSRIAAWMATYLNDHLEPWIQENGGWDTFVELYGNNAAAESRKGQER

T1 sequence (Q07820 172-327 limits assumed): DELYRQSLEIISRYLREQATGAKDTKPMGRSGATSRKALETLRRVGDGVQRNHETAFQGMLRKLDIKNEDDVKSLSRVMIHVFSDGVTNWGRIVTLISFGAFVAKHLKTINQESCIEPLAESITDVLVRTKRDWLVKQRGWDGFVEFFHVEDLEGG
Sequence of BCL-2 (P10415 1-217 limits assumed): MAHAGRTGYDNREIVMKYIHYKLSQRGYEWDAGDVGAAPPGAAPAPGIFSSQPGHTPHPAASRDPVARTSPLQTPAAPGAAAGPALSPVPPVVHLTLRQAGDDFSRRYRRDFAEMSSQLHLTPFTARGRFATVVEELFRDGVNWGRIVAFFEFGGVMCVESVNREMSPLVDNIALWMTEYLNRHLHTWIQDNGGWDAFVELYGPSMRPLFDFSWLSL

Binder	Ki (BCL-2) [nM]	Ki (MCL-1) [nM]	Ki (BCL-XL) [nM]
IWIAQALRAIGDAFNAYYA (not fully specified; Ac- at N-terminus; -NH2 at C-terminus; $r8 at 9 and $ at 16 joined by all-carbon crosslinker) [SEQ ID NO: 1633]	84.8	8.4	22.4
Ac-IWIAQALR[R8]IGDAFA[S5]YYA-NH2 (staple 9-16; SMILES CC[C@H](C)[C@H](NC(C)=O)C(=O)N[C@@H](Cc1c[nH]c2ccccc12)C(=O)N[C@H](C(=O)N[C@@H](C)C(=O)N[C@@H](CCC(N)=O)C(=O)N[C@@H](C)C(=O)N[C@@H](CC(C)C)C(=O)N[C@@H](CCCNC(=N)N)C(=O)N[C@]1(C)CCCCCCC=CCCC[C@@](C)(C(=O)N[C@@H](Cc2ccc(O)cc2)C(=O)N[C@@H](Cc2ccc(O)cc2)C(=O)N[C@@H](C)C(N)=O)NC(=O)[C@H](C)NC(=O)[C@H](Cc2ccccc2)NC(=O)[C@H](C)NC(=O)[C@H](CC(=O)O)NC(=O)CNC(=O)[C@H]([C@@H](C)CC)NC1=O)[C@@H](C)CC) [SEQ ID NO: 1654]	115	7.4	55.7
Ac-IWIAQA[hAdm]R[R8]IGDAFN[S5]YYA-NH2 (staple 9-16, also called Ac-IWIAQAhAdmR$r8IGDAFN$YYA-NH2) [SEQ ID NO: 1691]	240	16.6	–
Ac-I[S5]IAQ[S5]LR[R8]IGDEFN[S5]YYA-NH2 (staple 9-16, 2-6; SMILES CC[C@H](C)[C@H](NC(C)=O)C(=O)N[C@@]1(C)CCCC=CCCC[C@@](C)(C(=O)N[C@@H](CC(C)C)C(=O)N[C@@H](CCCNC(=N)N)C(=O)N[C@]2(C)CCCCCCC=CCCC[C@@](C)(C(=O)N[C@@H](Cc3ccc(O)cc3)C(=O)N[C@@H](Cc3ccc(O)cc3)C(=O)N[C@@H](C)C(N)=O)NC(=O)[C@H](CC(N)=O)NC(=O)[C@H](Cc3ccccc3)NC(=O)[C@H](CCC(=O)O)NC(=O)[C@H](CC(=O)O)NC(=O)CNC(=O)[C@H]([C@@H](C)CC)NC2=O)NC(=O)[C@H](CCC(N)=O)NC(=O)[C@H](C)NC(=O)[C@H]([C@@H](C)CC)NC1=O, also called Ac-I$IAQ$LR$r8IGDEFN$YYA-NH2) [SEQ ID NO: 1641]	8.7	19.5	11.6
Ac-IWIAQA[Phe(4-CF3)]R[R8]IGDAFN[S5]YYA-NH2 (staple 9-16; SMILES CC[C@H](C)[C@H](NC(C)=O)C(=O)N[C@@H](Cc1c[nH]c2ccccc12)C(=O)N[C@H](C(=O)N[C@@H](C)C(=O)N[C@@H](CCC(N)=O)C(=O)N[C@@H](C)C(=O)N[C@@H](Cc1ccc(C(F)(F)F)cc1)C(=O)N[C@@H](CCCNC(=N)N)C(=O)N[C@]1(C)CCCCCCC=CCCC[C@@](C)(C(=O)N[C@@H](Cc2ccc(O)cc2)C(=O)N[C@@H](Cc2ccc(O)cc2)C(=O)N[C@@H](C)C(N)=O)NC(=O)[C@H](CC(N)=O)NC(=O)[C@H](Cc2ccccc2)NC(=O)[C@H](C)NC(=O)[C@H](CC(=O)O)NC(=O)CNC(=O)[C@H]([C@@H](C)CC)NC1=O)[C@@H](C)CC, also called Ac-IWIAQAF4CF3R$r8IGDAFN$YYA-NH2) [SEQ ID NO: 1694]	–	188	10.8
Ac-IAIAQALR[R8]IGDAFN[S5]YYA-NH2 (staple 9-16; SMILES CC[C@H](C)[C@H](NC(C)=O)C(=O)N[C@@H](C)C(=O)N[C@H](C(=O)N[C@@H](C)C(=O)N[C@@H](CCC(N)=O)C(=O)N[C@@H](C)C(=O)N[C@@H](CC(C)C)C(=O)N[C@@H](CCCNC(=N)N)C(=O)N[C@]1(C)CCCCCCC=CCCC[C@@](C)(C(=O)N[C@@H](Cc2ccc(O)cc2)C(=O)N[C@@H](Cc2ccc(O)cc2)C(=O)N[C@@H](C)C(N)=O)NC(=O)[C@H](CC(N)=O)NC(=O)[C@H](Cc2ccccc2)NC(=O)[C@H](C)NC(=O)[C@H](CC(=O)O)NC(=O)CNC(=O)[C@H]([C@@H](C)CC)NC1=O)[C@@H](C)CC) [SEQ ID NO: 1648]	37.7	19.7	22.3
IWIAQALRAIGDEFNAYYARR (not fully specified; Ac- at N-terminus; -NH2 at C-terminus; $r8 at 9 and $ at 16 joined by all-carbon crosslinker) [SEQ ID NO: 1628]	12.9	10.6	3.9
Ac-IW[Bip]AQALR[R8]IGDAFN[S5]YYA-NH2 (staple 9-16; SMILES CC[C@H](C)[C@H](NC(C)=O)C(=O)N[C@@H](Cc1c[nH]c2ccccc12)C(=O)N[C@@H](Cc1ccc(-c2ccccc2)cc1)C(=O)N[C@@H](C)C(=O)N[C@@H](CCC(N)=O)C(=O)N[C@@H](C)C(=O)N[C@@H](CC(C)C)C(=O)N[C@@H](CCCNC(=N)N)C(=O)N[C@]1(C)CCCCCCC=CCCC[C@@](C)(C(=O)N[C@@H](Cc2ccc(O)cc2)C(=O)N[C@@H](Cc2ccc(O)cc2)C(=O)N[C@@H](C)C(N)=O)NC(=O)[C@H](CC(N)=O)NC(=O)[C@H](Cc2ccccc2)NC(=O)[C@H](C)NC(=O)[C@H](CC(=O)O)NC(=O)CNC(=O)[C@H]([C@@H](C)CC)NC1=O, also called Ac-IWBipAQALR$r8IGDAFN$YYA-NH2) [SEQ ID NO: 1686]	–	11	3

Binders with a lower Ki (MCL-1), results first:

Ki (BCL-2) [nM]	Ki (MCL-1) [nM]	Ki (BCL-XL) [nM]	Binder
21.9	7	15.4	Ac-IWIAQALR[R8]IGDEFA[S5]YYA-NH2 (staple 9-16; SMILES CC[C@H](C)[C@H](NC(C)=O)C(=O)N[C@@H](Cc1c[nH]c2ccccc12)C(=O)N[C@H](C(=O)N[C@@H](C)C(=O)N[C@@H](CCC(N)=O)C(=O)N[C@@H](C)C(=O)N[C@@H](CC(C)C)C(=O)N[C@@H](CCCNC(=N)N)C(=O)N[C@]1(C)CCCCCCC=CCCC[C@@](C)(C(=O)N[C@@H](Cc2ccc(O)cc2)C(=O)N[C@@H](Cc2ccc(O)cc2)C(=O)N[C@@H](C)C(N)=O)NC(=O)[C@H](C)NC(=O)[C@H](Cc2ccccc2)NC(=O)[C@H](CCC(=O)O)NC(=O)[C@H](CC(=O)O)NC(=O)CNC(=O)[C@H]([C@@H](C)CC)NC1=O)[C@@H](C)CC) [SEQ ID NO: 1643]
65.4	6.7	25.6	Ac-IWIAAALR[R8]IGDAFN[S5]YYA-NH2 (staple 9-16; SMILES CC[C@H](C)[C@H](NC(C)=O)C(=O)N[C@@H](Cc1c[nH]c2ccccc12)C(=O)N[C@H](C(=O)N[C@@H](C)C(=O)N[C@@H](C)C(=O)N[C@@H](C)C(=O)N[C@@H](CC(C)C)C(=O)N[C@@H](CCCNC(=N)N)C(=O)N[C@]1(C)CCCCCCC=CCCC[C@@](C)(C(=O)N[C@@H](Cc2ccc(O)cc2)C(=O)N[C@@H](Cc2ccc(O)cc2)C(=O)N[C@@H](C)C(N)=O)NC(=O)[C@H](CC(N)=O)NC(=O)[C@H](Cc2ccccc2)NC(=O)[C@H](C)NC(=O)[C@H](CC(=O)O)NC(=O)CNC(=O)[C@H]([C@@H](C)CC)NC1=O)[C@@H](C)CC) [SEQ ID NO: 1653]
22	6	4	Ac-IWIAAALR[R8]IGDQFN[S5]YYA-NH2 (staple 9-16; SMILES CC[C@H](C)[C@H](NC(C)=O)C(=O)N[C@@H](Cc1c[nH]c2ccccc12)C(=O)N[C@H](C(=O)N[C@@H](C)C(=O)N[C@@H](C)C(=O)N[C@@H](C)C(=O)N[C@@H](CC(C)C)C(=O)N[C@@H](CCCNC(=N)N)C(=O)N[C@]1(C)CCCCCCC=CCCC[C@@](C)(C(=O)N[C@@H](Cc2ccc(O)cc2)C(=O)N[C@@H](Cc2ccc(O)cc2)C(=O)N[C@@H](C)C(N)=O)NC(=O)[C@H](CC(N)=O)NC(=O)[C@H](Cc2ccccc2)NC(=O)[C@H](CCC(N)=O)NC(=O)[C@H](CC(=O)O)NC(=O)CNC(=O)[C@H]([C@@H](C)CC)NC1=O)[C@@H](C)CC) [SEQ ID NO: 1652]
67	5.2	12	Ac-IWIAQALR[R8]IGDQFN[S5]YYA-NH2 (staple 9-16; SMILES CC[C@H](C)[C@H](NC(C)=O)C(=O)N[C@@H](Cc1c[nH]c2ccccc12)C(=O)N[C@H](C(=O)N[C@@H](C)C(=O)N[C@@H](CCC(N)=O)C(=O)N[C@@H](C)C(=O)N[C@@H](CC(C)C)C(=O)N[C@@H](CCCNC(=N)N)C(=O)N[C@]1(C)CCCCCCC=CCCC[C@@](C)(C(=O)N[C@@H](Cc2ccc(O)cc2)C(=O)N[C@@H](Cc2ccc(O)cc2)C(=O)N[C@@H](C)C(N)=O)NC(=O)[C@H](CC(N)=O)NC(=O)[C@H](Cc2ccccc2)NC(=O)[C@H](CCC(N)=O)NC(=O)[C@H](CC(=O)O)NC(=O)CNC(=O)[C@H]([C@@H](C)CC)NC1=O)[C@@H](C)CC) [SEQ ID NO: 1650]
3.2	1.8	1.4	Ac-IWIAQALR[R8]IGDEFN[S5]YYA-NH2 (staple 9-16; SMILES CC[C@H](C)[C@H](NC(C)=O)C(=O)N[C@@H](Cc1c[nH]c2ccccc12)C(=O)N[C@H](C(=O)N[C@@H](C)C(=O)N[C@@H](CCC(N)=O)C(=O)N[C@@H](C)C(=O)N[C@@H](CC(C)C)C(=O)N[C@@H](CCCNC(=N)N)C(=O)N[C@]1(C)CCCCCCC=CCCC[C@@](C)(C(=O)N[C@@H](Cc2ccc(O)cc2)C(=O)N[C@@H](Cc2ccc(O)cc2)C(=O)N[C@@H](C)C(N)=O)NC(=O)[C@H](CC(N)=O)NC(=O)[C@H](Cc2ccccc2)NC(=O)[C@H](CCC(=O)O)NC(=O)[C@H](CC(=O)O)NC(=O)CNC(=O)[C@H]([C@@H](C)CC)NC1=O)[C@@H](C)CC) [SEQ ID NO: 1649]
6	1	1	Ac-IWIAAALR[R8]IGDEFN[S5]YYA-NH2 (staple 9-16; SMILES CC[C@H](C)[C@H](NC(C)=O)C(=O)N[C@@H](Cc1c[nH]c2ccccc12)C(=O)N[C@H](C(=O)N[C@@H](C)C(=O)N[C@@H](C)C(=O)N[C@@H](C)C(=O)N[C@@H](CC(C)C)C(=O)N[C@@H](CCCNC(=N)N)C(=O)N[C@]1(C)CCCCCCC=CCCC[C@@](C)(C(=O)N[C@@H](Cc2ccc(O)cc2)C(=O)N[C@@H](Cc2ccc(O)cc2)C(=O)N[C@@H](C)C(N)=O)NC(=O)[C@H](CC(N)=O)NC(=O)[C@H](Cc2ccccc2)NC(=O)[C@H](CCC(=O)O)NC(=O)[C@H](CC(=O)O)NC(=O)CNC(=O)[C@H]([C@@H](C)CC)NC1=O)[C@@H](C)CC) [SEQ ID NO: 1651]
